Experimental data: patent US20260049151A1 (SHENGHE CHINA BIOPHARMACEUTICAL, published 2026)
Like-named read-outs stand apart in the source and are kept apart here.

T1: Human-TNFR2-His (human, UniProt P20333 23-257)
T1 construct: Bought protein; also called human TNFR2 protein; TNFR2 protein; not shown: His tag
T1 sequence (looked up): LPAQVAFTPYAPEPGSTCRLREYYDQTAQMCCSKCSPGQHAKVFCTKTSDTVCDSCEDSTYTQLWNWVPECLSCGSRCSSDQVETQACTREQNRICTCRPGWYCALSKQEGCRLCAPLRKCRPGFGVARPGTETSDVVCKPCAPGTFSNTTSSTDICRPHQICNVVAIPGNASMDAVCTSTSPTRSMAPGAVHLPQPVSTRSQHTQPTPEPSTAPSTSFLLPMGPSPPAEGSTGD

T2: Human TNFR2 mFc (human, UniProt P20333 23-257)
T2 construct: Bought protein; not shown: mFc
T2 sequence (looked up): T1 sequence (looked up)

B1: Antibody D (bispecific antibody, human IgG1, kappa)
light: EVQLVQSGAEVKKPGATVKISCKVSGYSITDYLLHWVQQAPGKCLEWMGWIDPEDAKTKYGQKFQSRVTITADTSTDTAYMELSSLRSEDTAVYYCAANSGTGTMDAWGQGTLVTVSSGGGGSGGGGSGGGGSDIVMTQSPATLSVSPGERATLSCKASQNVGSNVDWYQQKPGQSPRVLIYKASIRYTGIPARFSGSGSGTEFTLTISILQSEDFAVYFCMQSKSYPITFGCGTKLEIKGGGGSGGGGSGGGGSDIQMTQSPSSLSASLGDRVTISCSASQGISNYLNWYQQKPDGTVKLLIYYTSTLHSGVPSRFSGSGSGTDYTLTISSLQPEDIATYYCQQYSKLPWTFGGGTKLEIKRTVAAPSVFIFPPSDEQLKSGTASVVCLLNNFYPREAKVQWKVDNALQSGNSQESVTEQDSKDSTYSLSSTLTLSKADYEKHKVYACEVTHQGLSSPVTKSFNRGEC
heavy: not shown
notes: IgG1 subtype; full-length 4-1BB antibody with TNFR2 scFv at the N-terminus of the light chains
B2: Antibody B (bispecific antibody, human IgG1, kappa)
light: DIQMTQSPSSLSASLGDRVTISCSASQGISNYLNWYQQKPDGTVKLLIYYTSTLHSGVPSRFSGSGSGTDYTLTISSLQPEDIATYYCQQYSKLPWTFGGGTKLEIKRTVAAPSVFIFPPSDEQLKSGTASVVCLLNNFYPREAKVQWKVDNALQSGNSQESVTEQDSKDSTYSLSSTLTLSKADYEKHKVYACEVTHQGLSSPVTKSFNRGECGGGGSGGGGSEVQLVQSGAEVKKPGATVKISCKVSGYSITDYLLHWVQQAPGKCLEWMGWIDPEDAKTKYGQKFQSRVTITADTSTDTAYMELSSLRSEDTAVYYCAANSGTGTMDAWGQGTLVTVSSGGGGSGGGGSGGGGSDIVMTQSPATLSVSPGERATLSCKASQNVGSNVDWYQQKPGQSPRVLIYKASIRYTGIPARFSGSGSGTEFTLTISILQSEDFAVYFCMQSKSYPITFGCGTKLEIK
heavy: not shown
notes: IgG1 subtype; full-length 4-1BB antibody with TNFR2 scFv at the C-terminus of the light chains
B3: Antibody F (bispecific antibody, human IgG1, kappa)
light: DIVMTQSPATLSVSPGERATLSCKASQNVGSNVDWYQQKPGQSPRVLIYKASIRYTGIPARFSGSGSGTEFTLTISILQSEDFAVYFCMQSKSYPITFGQGTKLEIKRTVAAPSVFIFPPSDEQLKSGTASVVCLLNNFYPREAKVQWKVDNALQSGNSQESVTEQDSKDSTYSLSSTLTLSKADYEKHKVYACEVTHQGLSSPVTKSFNRGECGGGGSGGGGSQVQLQESGPGLVKPSETLSLTCTVSGSSLTSYGVHWVRQPPGKCLEGLGVIWPGGSTNYNSALMSRVTISKDNSKSQVSLKMSSLTAADTAVYYCARVTGTWYFDVWGQGTTVTVSSGGGGSGGGGSGGGGSDIQMTQSPSSLSASLGDRVTISCSASQGISNYLNWYQQKPDGTVKLLIYYTSTLHSGVPSRFSGSGSGTDYTLTISSLQPEDIATYYCQQYSKLPWTFGCGTKLEIK
heavy: not shown
notes: IgG1 subtype; full-length TNFR2 antibody with 4-1BB scFv at the C-terminus of the light chains

Experiments:
Human-TNFR2-His [1] = target: T1, Human-TNFR2-His; assay: ELISA: Human-TNFR2-His coated (0.1 ug/mL), antibody titrated, goat anti-human IgG Fc detection (Example 2)
Protocol: (§1) Human-TNFR2-His (manufacturer: SINO, CAT: 10417-H08H, LOT: LC15NO0412) was diluted to 0.1 μg/mL with a coating solution (1×PBS, pH7.4), and coated in 96-well ELISA plate at 100 µL/well overnight at 4° C. The coating solution was poured off. Each well was washed with 1×PBST at 300 μL, washed 4 times with a plate washer, and patted dry on a flat paper. It was blocked with 3% skim milk powder at 300 μL/well, and incubated at 37° C. for 1 h. The blocking solution was poured off, washed 4 times with a plate washer, and patted dry on a flat paper. Negative control and positive control were set up. […] The positive control and antibody were diluted to 10 μg/mL with 3% skim milk powder as the starting concentration, and then diluted by 3-fold gradient (11 gradients in total), and a blank well was set up and only the diluent was added. It was incubated at 37° C. for 1 h at 100 μL/well. The liquid in the well was discarded, washed 4 times with a plate washer, and patted dry on a flat paper. Goat anti-human IgG Fc was diluted with 3% skim milk powder at 1:10000, and incubated at 37° C. for 1 h at 100 μL/well. It was washed 6 times with a plate washer, and patted dry on a flat paper. TMB color developing solution was added at 100 μL/well, and wrapped with aluminum foil. Color development was performed at 37° C. in the dark for 8 min. Termination solution 1M HCl was added to terminate the color development reaction at 100 μL/well. Readings were taken at 450 nm on an ELISA reader.

Human 4-1BB His [2] = target: T3, Human 4-1BB His (human, UniProt Q07011 24-186); assay: bridging ELISA: Human TNFR2 mFc coated (0.3 ug/mL), antibody titrated, then Human 4-1BB His (0.3 ug/mL), HRP anti-His detection (Example 5)
T3 construct: Bought protein; lots 198-2146F1-W6 and 2407c-214FF1-YC; also called human 4-1BB protein; 4-1BB protein; not shown: His tag
T3 sequence (Q07011 24-186 limits assumed): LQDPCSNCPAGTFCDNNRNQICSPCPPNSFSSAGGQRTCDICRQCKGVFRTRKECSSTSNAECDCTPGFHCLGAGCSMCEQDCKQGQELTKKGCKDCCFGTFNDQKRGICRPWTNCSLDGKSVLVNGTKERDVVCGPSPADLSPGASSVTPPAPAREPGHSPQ
Protocol: (§2) Human TNFR2 mFc (manufacturer: Kaixia, CAT: TN-HM3R2, LOT: 031202) was diluted to 0.3 μg/mL with a coating solution (1×PBS, pH7.4) and coated into a 96-well ELISA plate at 100 μL/well at 4° C. overnight. The coating solution was poured off. Each well was washed with 1×PBST at 300 μL, washed 4 times with a plate washer, and patted dry on a flat paper. It was blocked with 3% skim milk powder at 300 μL/well, and incubated at 37° C. for 1 h. The blocking solution was poured off, washed 4 times with a plate washer, and patted dry on a flat paper. […] Starting at 50 nM, which was used as the initial concentration for 3-fold dilution, a total of 10 gradients were diluted, and a blank well was set up and only the diluent was added. It was incubated at 37° C. for 1 h at 100 µL/well. The liquid in the well was discarded, washed 4 times with a plate washer, and patted dry on a flat paper. Human 4-1BB His (manufacturer: Acro, CAT: 41B-H5258, LOT: 198-2146F1-W6) was diluted to 0.3 μg/mL, 100 μL was added to each well, and incubated at room temperature for 1 h. The plate was washed 3 times with PBST, and then the HRP-labeled his antibody was diluted with sample diluent at 1:5000, 100 μ L was added to each well, and incubated at room temperature for 1 h. It was washed 6 times with a plate washer, and patted dry on a flat paper. TMB color developing solution was added at 100 μL/well, and wrapped with aluminum foil. Color development was performed at 37° C. in the dark for 8 min. Termination solution 1M HCl was added to terminate the color development reaction at 100 μL/well. Readings were taken at 450 nm on an ELISA reader.

Human TNFR2 mFc = target: T2, Human TNFR2 mFc; assay: as above
Protocol: as §2

Human-TNFR2-His [3] = target: T1, Human-TNFR2-His; assay: ELISA: Human-TNFR2-His coated (0.1 ug/mL), antibody titrated, goat anti-human IgG Fc detection (Example 2); remark: listed apart in the source
Protocol: as §1

Human 4-1BB Fc = target: T4, Human 4-1BB Fc (human, UniProt Q07011 24-186); assay: bridging ELISA: Human 4-1BB Fc coated (0.3 ug/mL), antibody titrated, then Human-TNFR2-His (0.3 ug/mL), HRP anti-His detection (Example 4)
T4 construct: same catalogue and lot number as Human 4-1BB His; not shown: Fc
T4 sequence (Q07011 24-186 limits assumed): as above
Protocol: Human 4-1BB Fc (manufacturer: Acro, CAT: 41B-H5258, LOT: 198-2146F1-W6) was diluted to 0.3 μg/mL with a coating solution (1×PBS, pH7.4) and coated into a 96-well ELISA plate at 100 µL/well at 4° C. overnight. The coating solution was poured off. Each well was washed with 1×PBST at 300 μL, washed 4 times with a plate washer, and patted dry on a flat sheet. It was blocked with 3% skim milk powder at 300 μL/well, and incubated at 37° C. for 1 h. The blocking solution was poured off, washed 4 times with a plate washer, and patted dry on a flat sheet. […] Starting at 50 nM, which was used as the initial concentration for 3-fold dilution, a total of 10 gradients were diluted, and a blank well was set up and only the diluent was added. It was incubated at 37° C. for 1 h at 100 μL/well. The liquid in the well was discarded, washed 4 times with a plate washer, and patted dry on a flat paper. Human-TNFR2-His (manufacturer: Sino, CAT: 10417-H08H, LOT: LC15NO0412) was diluted to 0.3 μg/mL, 100 μL was added to each well, and incubated at room temperature for 1 h. The plate was washed 3 times with PBST, and then the HRP-labeled his antibody was diluted with sample diluent at 1:5000, 100 μ L was added to each well, and incubated at room temperature for 1 h. It was washed 6 times with a plate washer, and patted dry on a flat paper. TMB color developing solution was added at 100 μL/well, and wrapped with aluminum foil. Color development was performed at 37° C. in the dark for 8 min. Termination solution 1M HCl was added to terminate the color development reaction at 100 μL/well. Readings were taken at 450 nm on an ELISA reader.

Human 4-1BB His [4] = target: T3, Human 4-1BB His; assay: ELISA: Human 4-1BB His coated (0.2 ug/mL), antibody titrated, goat anti-human IgG Fc detection (Example 3)
Protocol: Human 4-1BB His (manufacturer: Acro, CAT: 41B-H5258, LOT: 198-2146F1-W6) was diluted to 0.2 μg/mL with a coating solution (1×PBS, pH7.4), and coated in 96-well ELISA plate at 100 μL/well overnight at 4° C. The coating solution was poured off. Each well was washed with 1×PBST at 300 μL, washed 4 times with a plate washer, and patted dry on a flat paper. It was blocked with 3% skim milk powder at 300 μL/well, and incubated at 37° C. for 1 h. The blocking solution was poured off, washed 4 times with a plate washer, and patted dry on a flat paper. Negative control and positive control were set up. […] The variable region of the antibody sequence of the positive control consists of SEQ ID NO: 15 and SEQ ID NO: 19, with the addition of the constant region of human IgG1 (SEQ ID NO: 46 and SEQ ID NO: 47). The positive control and antibody were diluted to 10 μg/mL with 3% skim milk powder as the starting concentration, and then diluted by 3-fold gradient (11 gradients in total), and a blank well was set up and only the diluent was added. It was incubated at 37° C. for 1 h at 100 μL/well. The liquid in the well was discarded, washed 4 times with a plate washer, and patted dry on a flat paper. Goat anti-human IgG Fc was diluted with 3% skim milk powder at 1:20000, and incubated at 37° C. for 1 h at 100 μL/well. It was washed 6 times with a plate washer, and patted dry on a flat paper. TMB color developing solution was added at 100 μL/well, and wrapped with aluminum foil. Color development was performed at 37° C. in the dark for 8 min. Termination solution 1M HCl was added to terminate the color development reaction at 100 μL/well. Readings were taken at 450 nm on an ELISA reader.

binding result (Human-TNFR2-His [1]) | binding result (Human 4-1BB His [2]) | binding result (Human TNFR2 mFc) | binding result (Human-TNFR2-His [3]) | EC50 (read off the curve) (Human 4-1BB Fc) | EC50 (read off the curve) (Human 4-1BB His [4]) | EC50 (read off the curve) (Human-TNFR2-His [1]) | EC50 (read off the curve) (Human TNFR2 mFc) | Binder
binds | binds | binds |  |  |  |  |  | B1
 | binds | binds | binds |  |  |  |  | B2
 |  |  |  | ~0.4 nM | ~0.3 nM | ~0.08 nM | ~0.2 nM | B3
